Measured values from patent US20220162310A1.

Target: human TIGIT-Fc antigen (human) (UniProt Q495A1)
Test: ELISA on plate-coated human TIGIT-Fc (3 ug/ml), scFv from 80 nM in 1/3 steps, anti-His-HRP, OD450; value is C of the printed 4-P fit; the sheet prints no unit, nM from paragraph 123

Chain of human TIGIT-Fc antigen (human) (Q495A1 22-141 T103A limits assumed): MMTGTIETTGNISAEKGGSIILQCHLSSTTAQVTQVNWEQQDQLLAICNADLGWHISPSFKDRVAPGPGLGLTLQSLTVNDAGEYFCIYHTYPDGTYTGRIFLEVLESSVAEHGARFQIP

B1: 1F10 (scFv-type anti-TIGIT antibody) (scFv, part only; not given: linker, domain order, His tag, V domains shown, not shown: another chain or arm of the molecule; small tags and cut ends)
VH: EVQLVESGGGLVKPGGSLRISCAASGFTFSNYNMIWVRQAPGKGLEWVSSISSSASYIYYADSVKGRFTISRDNAKNSLYLQMNSLRAEDTAVYYCARDEGSRDSWNNGPYYYSGMDVWGQGTTVTVSS
VL: AIQMTQSPSSLSASVGDRVTITCRASQSISRYLNWYQHKPGKAPKLLIYGASSLQSGVPSRFRGSGSGTDFTLTISSLQPEDFATYYCQQSYTTPGAFTFGGGTKVEIK
Q: B1 was tested. Which EC50 did it give?
A: Its EC50 is 0.526 nM.
